# Reference: US5587468, “High affinity nucleic acid ligands to HIV integrase” (University Research Corporation)
# B1: P5 (ssRNA)
# RNA: GGGAGCUCAGAAUAAACGCUCAACCAGUCUUGUGGCUUUGAAAGAGAGGAGUGUUCGACAUGAGGCCCGGAUCCGGC
# B2: P23 (ssRNA)
# RNA: GGGAGCUCAGAAUAAACGCUCAACCAGUCUUAUGGCGUUGCAAGAUAGGGGCGUUCGACAUGAGGCCCGGAUCCGGC
# B3: P5 deletion of 1-14 (ssRNA)
# RNA: AACGCUCAACCAGUCUUGUGGCUUUGAAAGAGAGGAGUGUUCGACAUGAGGCCCGGAUCCGGC
# B4: P5 truncate lacking 1-6 and 64-77 (ssRNA)
# RNA: UCAGAAUAAACGCUCAACCAGUCUUGUGGCUUUGAAAGAGAGGAGUGUUCGACAUGA
# B5: P5 deletion of 56-77 (ssRNA)
# RNA: GGGAGCUCAGAAUAAACGCUCAACCAGUCUUGUGGCUUUGAAAGAGAGGAGUGUU
# What was measured:
# HIV-1 integrase [1] = target: T1, HIV-1 integrase (Human immunodeficiency virus 1 (BH10), UniProt P03366 P03366:1160-1447); experiment: FP filter; nitrocellulose filter; 250 mM NaCl, 10 mM MnCl2, pH 7.5, 37 C; details: tags: gift of Agouron Pharmaceuticals; BH10 clone; stem-loops with GNRA tetraloop and putative pseudoknot (11-14 with 28-31)
# Experimental: (§1) Binding assays were done by adding 5 µl of HIV-1 integrase protein, at the appropriate concentrations (i.e., ranging from 2 ×10^-6 with 3 fold dilutions to 9 ×10^-9 for 250 mM NaCl and 0.5 ×10^-7 with 3 fold dilutions to 2 ×10^-10 for 50 mM NaCl), to 45 µl of binding buffer (50 mM Na-HEPES pH 7.5, 250 mM NaCl, 2 mM DTT, 10 mM MnCl_2, 5 mM CHAPS) on ice, then adding 50,000 cpm of kinased RNA (<200 fmoles) in a volume of 3 to 4 µl. This mix is incubated at 37° C. for 20 minutes. The reactions were then passed over nitrocellulose filters, which were pre-equilibrated in buffer, and washed with a 50 mM Tris-Cl pH 7.5 solution. Filters were dried and counted in cocktail. The proteins used in these experiments were frozen and thawed only once. Each binding curve consisted of seven points and each point is an average since experiments were done in triplicate.
# HIV-1 integrase [2] = target: T1, HIV-1 integrase; experiment: competition; inhibits binding of con+/- U5 DNA, 180 mM NaCl; details: tags: gift of Agouron Pharmaceuticals; BH10 clone; stem-loops with GNRA tetraloop and putative pseudoknot (11-14 with 28-31)
# Experimental: 50 nM integrase was mixed with 20 nM double-stranded con± which mimics the U5 region of the HIV genome and incubated at 37° C. for 5 minutes. After this time, varying amounts of P5 or 30N RNA (i.e., random pool RNA) was added and the reaction mix (30 µl final volume) was incubated further for 20 minutes. The reactions were then placed at room temperature and passed over nitrocellulose filters. Filters were washed three times with 1 ml of 50 mM Tris-Cl pH 7.5. Filters were dried under a heat lamp and counted in a cocktail for 1 minute each. In the absence of RNA under these conditions, approximately 10% of the double-stranded DNA was retained on filter.
# HIV-1 integrase [3] = target: T1, HIV-1 integrase; experiment: FP filter; nitrocellulose filter; 50 mM NaCl; details: tags: gift of Agouron Pharmaceuticals; BH10 clone; stem-loops with GNRA tetraloop and putative pseudoknot (11-14 with 28-31)
# Experimental: as §1
# HIV-1 integrase [4] = target: T1, HIV-1 integrase; experiment: FP filter; nitrocellulose filter; 250 mM NaCl; details: tags: gift of Agouron Pharmaceuticals; BH10 clone
# Experimental: as §1
# HIV-1 integrase [5] = target: T1, HIV-1 integrase; experiment: FP filter; binding completely abolished; details: tags: gift of Agouron Pharmaceuticals; BH10 clone
# HIV-1 integrase [6] = target: T1, HIV-1 integrase; experiment: FP filter; deletion had no noticeable effect on binding; details: tags: gift of Agouron Pharmaceuticals; BH10 clone
binder,measurement,setting,value
B1,Kd,HIV-1 integrase [1],12 nM
same,IC50,HIV-1 integrase [2],6 nM
same,Kd,HIV-1 integrase [3],2 nM
B2,Kd,HIV-1 integrase [4],25 nM
B3,binding result,HIV-1 integrase [5],no binding
B4,binding result,HIV-1 integrase [6],binds
B5,binding result,HIV-1 integrase [5],no binding
